{
  "source": "patent US20240209334A1",
  "about": "“SMALL-MOLECULE-ACTIVATED GLYCAN MODIFYING ENZYMES AND USES THEREOF” (President and Fellows of Harvard College, priority 2022, published 2024)",
  "molecules": {"B1": {"name": "OGA-intein(C181): miniOGA with the 4-HT-responsive evolved intein inserted at C181 (protein)", "chain": "MEQKLISEEDLAIAMVQKESQATLEERESELSSNPAASAGASLEPPAAPAPGEDNPAGAGGAAVAGAAGGARRFLCGVVEGFYGRPWVMEQRKELFRRLQKWELNTYLYAPKDDYKHRMFWREMYSVEEAEQLMTLISAAREYEIEFIYAISPGLDITFSNPKEVSTLKRKLDQVSQFGCRSFALLFDDIDHNMCLAEGTRIFDPVTGTTHRIEDVVDGRKPIHVVAAAKDGTLLARPVVSWFDQGTRDVIGLRIAGGAIVWATPDHKVLTEYGWRAAGELRKGDRVAGPGGSGNSLALSLTADQMVSALLDAEPPILYSEYDPTSPFSEASMMGLLTNLADRELVHMINWAKRVPGFVDLTLHDQAHLLERAWLEILMIGLVWRSMEHPGKLLFAPNLLLDRNQGKCVEGMVEIFDMLLATSSRFRMMNLQGEEFVCLKSIILLNSGVYTFLSSTLKSLEEKDHIHRALDKITDTLIHLMAKAGLTLQQQHQRLAQLLLILSHIRHMSNKGMEHLYSMKYKNVVPLYDLLLEMLDAHRLHAGGSGASRVQAFADALDDKFLHDMLAEGLRYSVIREVLPTRRARTFDLEVEELHTLVAEGVVVHNCAADKEVFSSFAHAQVSITNEIYQYLGEPETFLFCPTEYCGTFCYPNVSQSPYLRTVGEKLLPGIEVLWTGPKVVSKEIPVESIEEVSKIIKRAPVIWDNIHANDYDQKRLFLGPYKGRSTELIPRLKGVLTNPNCEFEANYVAIHTLATWYKSNMNGVRKDVVMTDSEDSTVSIQIKLENEGSDEDIETDVLYSPQMALKLALTEWLQEFGVPHQYSSRGSGSGSGSGSGSGSGEKPLYTAEPVTLEDLQLLADLFYLPYEHGPKGAQMLREFQWLRANSSVVSVNCKGKDSEKIEEWRSRAAKFEEMCGLVMGMFTRLSNCANRTILYDMYSYVWDIKSIMSMVKSFVQWLGCRSHSSAQFLIGDQEPWAFRGGLAGEFQRLLPIDGANDLFFQPP"}},
  "key": {"[1]": {"tested_on": "O-GlcNAcylated proteins in HEK293T cells", "assay": "Quantitative proteomics after enrichment for O-GlcNAc", "assay_type": "cell-based, Homo sapiens", "conditions": "25 μM OSMI-4b for 10 hours", "procedure": "To further assess the spatial deglycosylation mediated by these subcellularly localized OGA-intein variants, quantitative proteomics was performed following enrichment for O-GlcNAc (38) on cell lysates after expression of C181-NLS with 4-HT treatment for 2 hours and 24 hours, respectively, or the OGT inhibitor OSMI-4b (3) for comparison (FIG. 4E and FIGS. 12A, 12B, 12C).\nChemoenzymatic labeling of O-GlcNAcylated proteins. Purification of GalT1 (Y289L) enzyme and labeling of O-GlcNAcylated proteins with GalNAz were performed according to the procedure of Hsich-Wilson and co-workers (51). Briefly, cell samples in 15-cm dishes were harvested and washed by PBS once. Cells were lysed in 2% SDS/PBS by heating at 95° C. for 5 minutes, followed by sonication. Protein concentrations were determined and then subjected to reduction and alkylation using 25 mM DTT at 95° C. for 5 minutes and 50 mM iodoacetamide at room temperature for 1 hour, respectively. Proteins were precipitated using the methanol/chloroform mix (aqueous phase: CH3OH:CHCl3=4:4:1) and resuspended in 1% SDS, 20 mM HEPES (pH 7.9) buffer with a concentration of 3.75 mg/mL. […]\nQuantitative chemical proteomics. […]"}, "[2]": {"tested_on": "global O-GlcNAc level in MCF-7 cells", "assay": "Immunoblot of global O-GlcNAc level and splicing in MCF-7 stable cell lines", "assay_type": "cell-based, human", "conditions": "MCF-7 cells stably expressing the variant", "text": "In addition to serving as an activator for intein splicing, 4-HT is also known as the active metabolite of tamoxifen, an FDA-approved drug for treating breast cancer patients. Breast cancer cells also have elevated OGT expression (39) and decreased levels of OGA (40, 41), resulting in elevated O-GlcNAcylation in the proteome. OGT is usually required for tumor growth and metastasis (39), and low OGA expression is correlated with poor survival in breast cancer patients (FIG. 13). The ER positive breast cancer-derived MCF-7 cell line is sensitive to tamoxifen and 4-HT, resulting in suppression of cell proliferation, yet drug resistance occurs after long-term treatment (42). Previous studies also show evidence that upregulation of O-GlcNAcylation protects MCF-7 cells from tamoxifen-induced cell death (43). To determine if reduction of O-GlcNAc sensitized MCF-7 cells to 4-HT treatment, it was assessed whether 4-HT induced inhibition of breast cancer cell proliferation and OGA-intein activation worked synergistically to accelerate cell death (FIG. 5A). […] Next, these two cell lines were treated with 4-HT at increasing concentrations, and cell viability was measured after 48 hours. […] Given that 4-HT promoted MCF-7 cell death through apoptosis (43), the apoptosis of these cells under 4-HT treatment was further analyzed through flow cytometry analyses following Annexin V and DAPI staining. […]"}, "Nup62 [3]": {"tested_on": "Nup62", "assay": "Spatial deglycosylation of cytoplasmic Nup62 by OGA-intein(C181) variants in HEK293T cells", "assay_type": "cell-based", "conditions": "cytoplasmic Nup62 co-expressed", "procedure": "(§1) Next, it was assessed whether these OGA-intein(C181) variants enable selective spatial deglycosylation in live cells. As O-GlcNAc affects the subcellular localization of many proteins (37), Nup62 was used as a model cytoplasmic substrate, which was previously primarily localized in the cytoplasm when transiently overexpressed in HEK293T cells independent of the O-GlcNAcylation state (13) (FIGS. 11A, 11B). Nup62 was co-expressed with three OGA-intein(C181) variants (C181-WT, C181-NLS, and C181-NES) in HEK293T cells, and Nup62 was enriched for O-GlcNAc measurement. […] Next, Nup62 was localized to the nucleus by attachment to an NLS tag (Nup62-NLS), and a similar coexpression and 4-HT-triggered activation was performed with OGA-intein(C181) variants. […] The fluorescent intensity of OGA-intein variants also show a strong correlation to the localization of Nup62, indicating the desired subcellular distribution (FIGS. 11A-C).\n(§2) Immunoprecipitation and Immunoblot assays. […]\n(§3) For immunoblotting analysis, proteins were transferred to a nitrocellulose membrane using an iBlot system (Invitrogen). […] Immunoblot images were captured using Azure Imager C600 and analyzed with Fiji ImageJ for converting all IR fluorescence western blot images to grayscale images."}, "Nup62 [4]": {"tested_on": "Nup62", "assay": "Screen of intein insertion sites: OGA-intein variants co-expressed with Nup62 in HEK293T cells, immunoblot", "assay_type": "cell-based", "text": "OGA is a multi-domain hydrolase responsible for O-GlcNAc removal in mammalian cells. Based on the reported crystal structures of OGA (27-29), the essential domains of the long splice variant of OGA were identified, and it was confirmed that the HAT domain is not required for its deglycosidase activity in cells (13). In addition, replacement of the disordered region between the catalytic domain and the stalk domain with a glycine-serine flexible linker (GS-linker) maintained its activity in live cells in the absence of the C-terminal HAT domain (13, 28). This variant, termed miniOGA, was selected as the initial template for engineering with an intein due to its smaller size and simpler structure (FIG. 2A). […] Inserting this evolved 4-HT-responsive intein into a site that abolishes miniOGA activity until protein splicing has taken place could result in a conditionally active OGA for O-GlcNAc removal under the control of 4-HT. As intein splicing would leave behind a single cysteine residue (22), and to minimize alterations on OGA protein sequence, cysteine residues across different structural domains and the GS-linker at miniOGA were selected as the candidate insertion sites, thus generating OGA-intein fusion constructs for nine positions in total (C62, C166, C181, C220, C316, C596, C631, C663, and the GS-linker) (FIG. 2A). The nine OGA-intein variants were transiently expressed in HEK293T cells together with a model glycoprotein Nup62. Cells were treated with or without 1 μM 4-HT for 24 hours after transfection. OGA-intein variants were then detected by the Myc tag to verify the expected splicing, and their enzymatic activities were evaluated by detection of O-GlcNAc on the substrate Nup62 following immunoprecipitation.\nas §2, §3"}, "Nup62-NLS": {"tested_on": "Nup62-NLS", "assay": "Spatial deglycosylation of nuclear Nup62-NLS by OGA-intein(C181) variants in HEK293T cells", "assay_type": "cell-based", "conditions": "nuclear Nup62-NLS co-expressed", "procedure": "as §1, §2, §3"}},
  "data": [
    {"molecule": "CCOC(=O)CN(Cc1cccs1)C(=O)[C@H](NS(=O)(=O)c1cc2ccc(=O)[nH]c2cc1Cl)c1ccccc1OC", "note": "[OSMI-4b]", "values": [
      {"measurement": "change of O-GlcNAc on nuclear and cytoplasmic proteins", "setting": "[1]", "value": "mild reduction of O-GlcNAc on both nuclear and cytoplasmic proteins"}
    ]},
    {"molecule": "B1", "values": [
      {"measurement": "global O-GlcNAc level after adding 4-HT", "setting": "[2]", "value": "decreased global O-GlcNAc level"},
      {"measurement": "removal of O-GlcNAc from Nup62 after 4-HT-triggered activation", "setting": "Nup62 [3]", "value": "removed O-GlcNAc from Nup62"},
      {"measurement": "intein splicing / spliced product on 4-HT treatment", "setting": "Nup62 [4]; 1 μM 4-HT for 24 hours, Myc tag detection", "value": "yielding the active spliced product"},
      {"measurement": "deglycosylation activity in the presence of 4-HT", "setting": "Nup62 [4]; co-expressed Nup62, 1 μM 4-HT for 24 hours", "value": "high deglycosylation activity"},
      {"measurement": "OGA activity (deglycosylation of Nup62) in the absence of 4-HT", "setting": "Nup62 [4]; co-expressed Nup62, without 4-HT", "value": "little activity"},
      {"measurement": "4-HT-induced deglycosylation of Nup62-NLS", "setting": "Nup62-NLS", "value": "4-HT-induced deglycosylation"}
    ]}
  ]
}
